Assay results: PMC10317887, “Hypoglycaemia frequency and physiological response after double or triple doses of once-weekly insulin icodec vs once-daily insulin glargine U100 in type 2 diabetes: a randomised crossover trial” (Diabetologia, 2023)

Experiments:
[1] = tested on: individuals with type 2 diabetes; test: Vital signs during hypoglycaemia induction; settings: triple dose
Method: Hypoglycaemic response assessments were conducted at predefined PG levels during hypoglycaemia development and recovery (Fig. 1b). Hypoglycaemic symptoms score (HSS), hypoglycaemia awareness, counterregulatory hormones, vital signs and cognitive function tests were assessed at baseline (PG5.5 mmol/l), during hypoglycaemia development (PG3.9 mmol/l and PG3.0 mmol/l) and at PGnadir. In addition, counterregulatory hormones and vital signs were assessed during recovery from hypoglycaemia at PG3.0 mmol/l, PG3.9 mmol/l and PG5.5 mmol/l.
Vital signs (diastolic blood pressure, systolic blood pressure and pulse) were measured after ≥5 min of rest in a supine position.
(§2) Changes in HSS, vital signs and cognitive function tests from baseline (PG5.5 mmol/l) to PG3.0 mmol/l and to PGnadir were compared between insulin products at each of the two dose levels using the same approach as described for PGnadir, except that no logarithmic transformation was done and that the baseline value was included as a covariate. Least-squares means, treatment difference and 95% CI were derived.

[2] = tested on: individuals with type 2 diabetes; test: Continuous glucose monitoring (CGM) after double and triple doses
Method: In addition to self-measured PG, which was performed throughout the trial, and PG measurements performed at the clinical site, continuous glucose monitoring (CGM) was conducted from the first dose of the first treatment period until the end of the second treatment period (Dexcom G6; Dexcom, San Diego, CA, USA). CGM data were visible to the participants and the investigators but were not used for titration of basal insulin dose or for reporting hypoglycaemia.
CGM data were summarised from the time of double or triple dose until the next insulin administration (excluding the period of hypoglycaemia induction experiments), thereby eliminating any confounding effect of other insulin.

[3] = tested on: individuals with type 2 diabetes; test: Hypoglycaemic symptoms score (HSS, Edinburgh Hypoglycaemia Scale) during hypoglycaemia induction; settings: for Change in HSS at PG3.0 mmol/l, least-squares mean: change from baseline PG5.5 mmol/l; for Change in HSS at PG3.0 mmol/l, least-squares mean / Change in HSS at PGnadir, least-squares mean: subgroup; for Change in HSS at PGnadir, least-squares mean: change from baseline
Method: Hypoglycaemic response assessments were conducted at predefined PG levels during hypoglycaemia development and recovery (Fig. 1b). Hypoglycaemic symptoms score (HSS), hypoglycaemia awareness, counterregulatory hormones, vital signs and cognitive function tests were assessed at baseline (PG5.5 mmol/l), during hypoglycaemia development (PG3.9 mmol/l and PG3.0 mmol/l) and at PGnadir.
The validated Edinburgh Hypoglycaemia Scale was used to determine hypoglycaemic symptoms, which were classified into 11 different autonomic, neuroglycopenic and non-specific symptoms of hypoglycaemia [14, 15]. The participant scored each of the 11 symptoms on a seven-point scale (1=‘not at all’, while 7=‘a great deal’). The total score was derived as 11 multiplied by the mean score for all symptoms.
as §2

cortisol = test: Counterregulatory hormone response: serum cortisol (electrochemiluminescent immunoassay); assay type: in vivo, human; settings: for Cortisol at PG3.0 mmol/l, estimated geometric mean / Cortisol at PGnadir, estimated geometric mean: serum, subgroup; for Cortisol at PGnadir, estimated geometric mean: n=19 icodec
Method: (§1) Plasma concentrations of glucagon were measured by an enzyme-linked immunosorbent assay (Mercodia AB, Uppsala, Sweden). Plasma concentrations of adrenaline (epinephrine) and noradrenaline (norepinephrine) were measured by liquid chromatography-mass spectrometry (Thermo Fisher Scientific, Dreieich, Germany). Serum concentrations of cortisol and growth hormone were measured by electrochemiluminescent immunoassays (Roche Diagnostics, Mannheim, Germany).

adrenaline (epinephrine) = test: Counterregulatory hormone response: plasma adrenaline (LC-MS); assay type: in vivo, human; settings: for Adrenaline at PG3.0 mmol/l, estimated geometric mean / Adrenaline at PGnadir, estimated geometric mean: plasma, subgroup
Method: as §1

[4] = tested on: noradrenaline (norepinephrine); test: Counterregulatory hormone response: plasma noradrenaline (LC-MS); assay type: in vivo, human; settings: for Noradrenaline at PG3.0 mmol/l, estimated geometric mean / Noradrenaline at PGnadir, estimated geometric mean: plasma, subgroup
Method: as §1

[5] = change from baseline, subgroup, n=20 icodec, 28 glargine U100
[6] = change from baseline, subgroup, n=20 icodec, 29 glargine U100
[7] = after double dose: first 2 weeks (icodec) / first 48 h (glargine U100), participants with clinically significant hypoglycaemia during induction
[8] = after triple dose: first week (icodec) / first 48 h (glargine U100), participants with clinically significant hypoglycaemia during induction
[9] = double dose, n=17 icodec, 15 glargine U100
[10] = double dose, n=20 icodec, 19 glargine U100
[11] = triple dose, n=20 icodec, 28 glargine U100
[12] = triple dose, n=20 icodec, 29 glargine U100

## insulin icodec
[1]
  Change in DBP at PGnadir, treatment difference (95% CI) icodec vs glargine U100: 3.6 (-0.8, 8.0)
  Change in SBP at PG3.0 mmol/l, treatment difference (95% CI) icodec vs glargine U100: 0.7 (-6.6, 8.0)
  Change in SBP at PGnadir, treatment difference (95% CI) icodec vs glargine U100: 3.9 (-2.2, 10.0)
  Change in pulse at PG3.0 mmol/l, treatment difference (95% CI) icodec vs glargine U100: 0.8 (-4.4, 5.9)
  Change in pulse at PGnadir, treatment difference (95% CI) icodec vs glargine U100: 0.5 (-4.8, 5.7)
[1]; [5]
  Change in DBP at PG3.0 mmol/l, least-squares mean: -2.4 mmHg
  Change in SBP at PG3.0 mmol/l, least-squares mean: -0.9 mmHg
  Change in pulse at PG3.0 mmol/l, least-squares mean: 3.1 beats/min
[1]; [6]
  Change in DBP at PGnadir, least-squares mean: -1.1 mmHg
  Change in SBP at PGnadir, least-squares mean: 1.8 mmHg
  Change in pulse at PGnadir, least-squares mean: 2.8 beats/min
[2]; after double dose: first 2 weeks (icodec) / first 48 h (glargine U100), all participants
  Percentage time spent with glucose <3.9 mmol/l (CGM), mean±SD: 0.99±2.12%
[2]; after double dose: first 2 weeks (icodec) / first 48 h (glargine U100), all participants, induction period excluded
  Percentage time spent with glucose <3.0 mmol/l (CGM), mean±SD: 0.15±0.44%
[2]; [7]
  Percentage time spent with glucose <3.0 mmol/l (CGM), mean±SD: 0.21±0.45%
  Percentage time spent with glucose <3.9 mmol/l (CGM), mean±SD: 1.63±2.75%
[2]; after triple dose: first week (icodec) / first 48 h (glargine U100), all participants
  Percentage time spent with glucose <3.9 mmol/l (CGM), mean±SD: 1.56±3.54%
[2]; after triple dose: first week (icodec) / first 48 h (glargine U100), all participants, induction period excluded
  Percentage time spent with glucose <3.0 mmol/l (CGM), mean±SD: 0.29±1.24%
[2]; [8]
  Percentage time spent with glucose <3.0 mmol/l (CGM), mean±SD: 0.56±1.70%
  Percentage time spent with glucose <3.9 mmol/l (CGM), mean±SD: 2.67±4.71%
[3]; double dose
  Change in HSS at PG3.0 mmol/l, treatment difference (95% CI) icodec vs glargine U100: 1.2 (-1.5, 4.0)
  Change in HSS at PGnadir, treatment difference (95% CI) icodec vs glargine U100: -0.3 (-4.0, 3.5)
[3]; [9]
  Change in HSS at PG3.0 mmol/l, least-squares mean: 1.8
[3]; [10]
  Change in HSS at PGnadir, least-squares mean: 6.0
[3]; triple dose
  Change in HSS at PGnadir, treatment difference (95% CI) icodec vs glargine U100: 0.5 (-2.7, 3.6)
[3]; [11]
  Change in HSS at PG3.0 mmol/l, least-squares mean: 2.2
[3]; [12]
  Change in HSS at PGnadir, least-squares mean: 5.4
[3]; triple dose, listed as Insulin icodec
  Change in HSS at PG3.0 mmol/l, treatment difference (95% CI) icodec vs glargine U100: -0.4 (-2.6, 1.8)
[3]; triple dose, listed as icodec
  Change in HSS at PG3.0 mmol/l, treatment difference (95% CI) icodec vs glargine U100: −0.4
cortisol; double dose
  Cortisol at PG3.0 mmol/l, treatment ratio (95% CI) icodec vs glargine U100: 1.60 (0.91, 2.80)
  Cortisol at PGnadir, treatment ratio (95% CI) icodec vs glargine U100: 0.99 (0.67, 1.45)
cortisol; [9]
  Cortisol at PG3.0 mmol/l, estimated geometric mean: 245.9 nmol/L
cortisol; double dose, 19 glargine U100
  Cortisol at PGnadir, estimated geometric mean: 296.0 nmol/L
cortisol; triple dose
  Cortisol at PG3.0 mmol/l, treatment ratio (95% CI) icodec vs glargine U100: 1.64
  Cortisol at PGnadir, treatment ratio (95% CI) icodec vs glargine U100: 1.80
cortisol; triple dose, 29 glargine U100
  Cortisol at PGnadir, estimated geometric mean: 355.0 nmol/L
cortisol; [11]
  Cortisol at PG3.0 mmol/l, estimated geometric mean: 201.4 nmol/L
Adrenaline (epinephrine); double dose
  Adrenaline at PG3.0 mmol/l, treatment ratio (95% CI) icodec vs glargine U100: 0.90 (0.54, 1.52)
  Adrenaline at PGnadir, treatment ratio (95% CI) icodec vs glargine U100: 0.90 (0.62, 1.30)
Adrenaline (epinephrine); [9]
  Adrenaline at PG3.0 mmol/l, estimated geometric mean: 476.7 pmol/L
Adrenaline (epinephrine); [10]
  Adrenaline at PGnadir, estimated geometric mean: 530.4 pmol/L
Adrenaline (epinephrine); triple dose
  Adrenaline at PG3.0 mmol/l, treatment ratio (95% CI) icodec vs glargine U100: 2.54
  Adrenaline at PGnadir, treatment ratio (95% CI) icodec vs glargine U100: 1.29 (0.88, 1.89)
Adrenaline (epinephrine); [11]
  Adrenaline at PG3.0 mmol/l, estimated geometric mean: 793.8 pmol/L
Adrenaline (epinephrine); [12]
  Adrenaline at PGnadir, estimated geometric mean: 735.8 pmol/L
[4]; double dose
  Noradrenaline at PG3.0 mmol/l, treatment ratio (95% CI) icodec vs glargine U100: 1.12 (0.83, 1.50)
  Noradrenaline at PGnadir, treatment ratio (95% CI) icodec vs glargine U100: 1.19 (0.91, 1.55)
[4]; [9]
  Noradrenaline at PG3.0 mmol/l, estimated geometric mean: 952.7 pmol/L
[4]; [10]
  Noradrenaline at PGnadir, estimated geometric mean: 1078.0 pmol/L
[4]; triple dose
  Noradrenaline at PG3.0 mmol/l, treatment ratio (95% CI) icodec vs glargine U100: 1.26
  Noradrenaline at PGnadir, treatment ratio (95% CI) icodec vs glargine U100: 1.05 (0.79, 1.40)
[4]; [11]
  Noradrenaline at PG3.0 mmol/l, estimated geometric mean: 1058.4 pmol/L
[4]; [12]
  Noradrenaline at PGnadir, estimated geometric mean: 934.1 pmol/L
